# Test results: the supplement of paper PMC9732359
# ± gives the uncertainty stated by the source.
# Experiment: protein stability index of a GFP-peptide fusion (yeast GPS) (PSI 1-4); higher = more stable; sorted into four equal gates, so the index is relative within each strain
# Procedure, shortened: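 For each peptide, the protein stability index sums the read frequency in every gate after multiplying it by the gate number. Read frequencies came from plasmids that were PCR-amplified from each gate and Illumina-sequenced, with reads assigned to strains by barcodes. The gates were four equal bins of GFP/Cherry fluorescence ratio applied to mid-log yeast in leucine-free medium carrying a pooled library of tiled 17-residue yeast protein peptides fused downstream of GFP on a Cherry-expressing plasmid.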
sequence,measurement,setting,value
HKLVFVVRIKGINKIPP [RPL7A],protein stability index,doa10∆,1.4 ± 0.038
same,protein stability index,pdr5∆,1.57 ± 0.046
same,protein stability index,san1∆,1.52 ± 0.094
same,protein stability index,ubr1∆,1.64 ± 0.053
YLLENNQVGTDELILPL [YDL116W/NUP84],protein stability index,doa10∆,3.18 ± 0.081
same,protein stability index,pdr5∆,3.06 ± 0.11
same,protein stability index,san1∆,3.07 ± 0.069
same,protein stability index,ubr1∆,2.89 ± 0.057
VNRSVVVSAVGEARNDI [YAR002W/NUP60],protein stability index,doa10∆,2.62 ± 0.044
same,protein stability index,pdr5∆,2.57 ± 0.051
same,protein stability index,san1∆,2.83 ± 0.041
same,protein stability index,ubr1∆,2.2 ± 0.037
RERDITSLFHKFILSGF [RRI2],protein stability index,doa10∆,1.71 ± 0.048
same,protein stability index,pdr5∆,2.07 ± 0.045
same,protein stability index,san1∆,2.23 ± 0.063
same,protein stability index,ubr1∆,2.09 ± 0.049
CISLSGVPNYLVQLEPH [SSN2],protein stability index,doa10∆,1.85 ± 0.062
same,protein stability index,pdr5∆,2.09 ± 0.08
same,protein stability index,san1∆,2.29 ± 0.083
same,protein stability index,ubr1∆,2.2 ± 0.065
SEEIDSLNEDVEEIKLQ [SMC2],protein stability index,doa10∆,3.19 ± 0.12
same,protein stability index,pdr5∆,3.41 ± 0.14
same,protein stability index,san1∆,2.94 ± 0.097
same,protein stability index,ubr1∆,3.25 ± 0.077
LGAVAGLIPYPHHNQSP [RET1],protein stability index,doa10∆,2.65 ± 0.094
same,protein stability index,pdr5∆,2.97 ± 0.071
same,protein stability index,san1∆,2.69 ± 0.055
same,protein stability index,ubr1∆,2.94 ± 0.065
GEITFDGIGGLTEQIRE [RPT4],protein stability index,doa10∆,3.34 ± 0.12
same,protein stability index,pdr5∆,3.45 ± 0.099
same,protein stability index,san1∆,3.21 ± 0.093
same,protein stability index,ubr1∆,3.54 ± 0.062
MSNKVKTKAMVPPINCI [SME1],protein stability index,doa10∆,2.42 ± 0.057
same,protein stability index,pdr5∆,2.35 ± 0.053
same,protein stability index,san1∆,2.64 ± 0.05
same,protein stability index,ubr1∆,2.57 ± 0.035
RALFETKLNLHCVIEDD [RRI1],protein stability index,doa10∆,2.36 ± 0.11
same,protein stability index,pdr5∆,2.8 ± 0.071
same,protein stability index,san1∆,2.8 ± 0.057
same,protein stability index,ubr1∆,2.29 ± 0.1
YYGCLENDHERGFFHLN [CSN12],protein stability index,doa10∆,3.14 ± 0.063
same,protein stability index,pdr5∆,3.24 ± 0.068
same,protein stability index,san1∆,3.21 ± 0.047
same,protein stability index,ubr1∆,3.26 ± 0.044
NIAKDLKWKKGIRGKLV [SMC1],protein stability index,doa10∆,1.37 ± 0.12
same,protein stability index,pdr5∆,2.04 ± 0.14
same,protein stability index,san1∆,2.23 ± 0.12
DDINKAKAVWENIIIVG [ARP9],protein stability index,doa10∆,1.58 ± 0.05
same,protein stability index,pdr5∆,2.17 ± 0.082
same,protein stability index,san1∆,1.67 ± 0.092
same,protein stability index,ubr1∆,2.03 ± 0.073
LDNMTYSSVAGTVSRVN [RRP4],protein stability index,doa10∆,2.44 ± 0.049
same,protein stability index,pdr5∆,2.52 ± 0.05
same,protein stability index,san1∆,2.23 ± 0.051
same,protein stability index,ubr1∆,2.21 ± 0.036
PKCHSRENVFFQSQQRR [RPB9],protein stability index,doa10∆,3.14 ± 0.088
same,protein stability index,pdr5∆,2.65 ± 0.081
same,protein stability index,san1∆,2.22 ± 0.089
same,protein stability index,ubr1∆,2.65 ± 0.054
YSRILKSMGRKCFDDIE [YCG1],protein stability index,doa10∆,3.16 ± 0.17
same,protein stability index,pdr5∆,2.35 ± 0.12
same,protein stability index,san1∆,2.92 ± 0.21
same,protein stability index,ubr1∆,2.16 ± 0.13
DSLTQNNNNAPIIIYGT [YOR098C/NUP1],protein stability index,doa10∆,2.69 ± 0.047
same,protein stability index,pdr5∆,2.93 ± 0.041
same,protein stability index,san1∆,2.8 ± 0.041
same,protein stability index,ubr1∆,2.92 ± 0.038
IAINFTVNHSEKFPNDV [RPP1],protein stability index,doa10∆,2.68 ± 0.068
same,protein stability index,pdr5∆,2.87 ± 0.047
same,protein stability index,san1∆,2.95 ± 0.051
same,protein stability index,ubr1∆,3.02 ± 0.058
IIRQLSELNEGNLSKRE [SRB8],protein stability index,doa10∆,3.18 ± 0.12
same,protein stability index,pdr5∆,3.53 ± 0.11
same,protein stability index,san1∆,3.4 ± 0.1
same,protein stability index,ubr1∆,3.42 ± 0.27
IPGLSAGVNNDNTKESK [RTT102],protein stability index,doa10∆,3.59 ± 0.11
same,protein stability index,pdr5∆,3.52 ± 0.083
same,protein stability index,san1∆,3.38 ± 0.071
same,protein stability index,ubr1∆,3.35 ± 0.081
KKVQALQSDKNFLDNCL [ITC1],protein stability index,doa10∆,3.13 ± 0.084
same,protein stability index,pdr5∆,2.83 ± 0.05
same,protein stability index,san1∆,2.83 ± 0.046
same,protein stability index,ubr1∆,3.05 ± 0.036
LQIVNQLPANMVHLYSI [RPC17],protein stability index,doa10∆,1.85 ± 0.043
same,protein stability index,pdr5∆,1.9 ± 0.045
same,protein stability index,san1∆,1.67 ± 0.068
same,protein stability index,ubr1∆,1.79 ± 0.039
GFKTPKTAIEGSYIDKK [RPS11A],protein stability index,doa10∆,2.98 ± 0.043
same,protein stability index,pdr5∆,3.21 ± 0.052
same,protein stability index,san1∆,3.12 ± 0.032
same,protein stability index,ubr1∆,3.201 ± 0.031
NPSVKQGEVGAVFIVPK [SWP82],protein stability index,doa10∆,3.23 ± 0.26
same,protein stability index,pdr5∆,3.23 ± 0.15
same,protein stability index,san1∆,3.28 ± 0.12
KPALKVSKEGLYQLVDI [YMR129W/POM152],protein stability index,doa10∆,3.18 ± 0.13
same,protein stability index,pdr5∆,3.1 ± 0.12
same,protein stability index,san1∆,3.14 ± 0.074
same,protein stability index,ubr1∆,3.02 ± 0.082
ANAAKRAEAKAQGVAVQ [RPL21A],protein stability index,doa10∆,2.55 ± 0.13
same,protein stability index,pdr5∆,1.96 ± 0.13
same,protein stability index,san1∆,2.06 ± 0.28
same,protein stability index,ubr1∆,1.92 ± 0.14
FGAKSDEKKDSDSSKPA [YJL041W/NSP1],protein stability index,doa10∆,3.04 ± 0.074
same,protein stability index,pdr5∆,3.21 ± 0.099
same,protein stability index,san1∆,3.24 ± 0.07
same,protein stability index,ubr1∆,3.04 ± 0.086
TSLSSKDLSNYRKTEGI [YMR153W/NUP53],protein stability index,doa10∆,3.12 ± 0.088
same,protein stability index,pdr5∆,3.25 ± 0.085
same,protein stability index,san1∆,3.24 ± 0.062
same,protein stability index,ubr1∆,3.35 ± 0.043
KNGALVSNILSAFKFIH [YJL039C/NUP192],protein stability index,doa10∆,1.71 ± 0.055
same,protein stability index,pdr5∆,1.65 ± 0.046
same,protein stability index,san1∆,1.51 ± 0.065
same,protein stability index,ubr1∆,1.3 ± 0.036
AAKIIYLAHEDNKEKDF [PRE10],protein stability index,doa10∆,2.81 ± 0.19
same,protein stability index,pdr5∆,3.18 ± 0.098
same,protein stability index,san1∆,3.25 ± 0.11
same,protein stability index,ubr1∆,3.01 ± 0.23
NKHLTTLVEIFLERKCV [SSN3],protein stability index,doa10∆,2.6 ± 0.17
same,protein stability index,pdr5∆,2.73 ± 0.2
same,protein stability index,ubr1∆,3.2 ± 0.17
MYPSPTGVMIGIDLAYN [PRP8],protein stability index,doa10∆,2.11 ± 0.074
same,protein stability index,pdr5∆,2.1 ± 0.07
same,protein stability index,san1∆,1.97 ± 0.081
same,protein stability index,ubr1∆,2.07 ± 0.048
RCNDNLMRSCFYLMVSS [YJL039C/NUP192],protein stability index,doa10∆,1.46 ± 0.043
same,protein stability index,pdr5∆,1.72 ± 0.054
same,protein stability index,san1∆,2.31 ± 0.057
same,protein stability index,ubr1∆,1.1 ± 0.038
DENGDKNDNGGKMNNEV [SWI3],protein stability index,doa10∆,3.15 ± 0.084
same,protein stability index,pdr5∆,3.41 ± 0.077
same,protein stability index,san1∆,3.12 ± 0.044
same,protein stability index,ubr1∆,3.33 ± 0.097
ANVLDPSLRKLIESGIG [BRR2],protein stability index,doa10∆,1.87 ± 0.064
same,protein stability index,pdr5∆,2.38 ± 0.071
same,protein stability index,san1∆,2.47 ± 0.095
same,protein stability index,ubr1∆,2.56 ± 0.045
PPLLVYKWTQGINNLSE [PRP8],protein stability index,doa10∆,3.09 ± 0.12
same,protein stability index,pdr5∆,3.11 ± 0.073
same,protein stability index,san1∆,3.29 ± 0.076
same,protein stability index,ubr1∆,3.25 ± 0.098
ERLKVPILVTLVSDSEI [POP6],protein stability index,doa10∆,1.55 ± 0.035
same,protein stability index,pdr5∆,1.86 ± 0.04
same,protein stability index,san1∆,1.58 ± 0.066
same,protein stability index,ubr1∆,1.66 ± 0.025
HVLVGDLIKFSAETLSE [FAS1],protein stability index,doa10∆,2.38 ± 0.1
same,protein stability index,pdr5∆,2.78 ± 0.1
same,protein stability index,san1∆,2.67 ± 0.1
same,protein stability index,ubr1∆,2.79 ± 0.089
TVHKTFEGNVATKAING [PRP8],protein stability index,doa10∆,2.85 ± 0.08
same,protein stability index,pdr5∆,2.22 ± 0.062
same,protein stability index,san1∆,1.85 ± 0.065
same,protein stability index,ubr1∆,2.71 ± 0.062
FVPVPSLAGFHKVQTKL [RPS7A],protein stability index,doa10∆,2.53 ± 0.075
same,protein stability index,pdr5∆,2.71 ± 0.081
same,protein stability index,san1∆,2.52 ± 0.073
same,protein stability index,ubr1∆,2.75 ± 0.088
GDYDSHDISRYVRAKFL [PRP8],protein stability index,doa10∆,2.08 ± 0.077
same,protein stability index,pdr5∆,2.11 ± 0.086
same,protein stability index,san1∆,1.66 ± 0.16
same,protein stability index,ubr1∆,1.43 ± 0.055
DIYSHEYKVITSLQGTY [YMR129W/POM152],protein stability index,doa10∆,1.89 ± 0.064
same,protein stability index,pdr5∆,2.43 ± 0.07
same,protein stability index,san1∆,2.65 ± 0.075
same,protein stability index,ubr1∆,2.49 ± 0.048
LKVTKKHGAKKVAKRTK [RPL27A],protein stability index,doa10∆,3.37 ± 0.13
same,protein stability index,pdr5∆,3.54 ± 0.17
same,protein stability index,san1∆,3.39 ± 0.11
same,protein stability index,ubr1∆,3.18 ± 0.13
AKAVWENIIIVGGTTSI [ARP9],protein stability index,doa10∆,1.89 ± 0.044
same,protein stability index,pdr5∆,2.12 ± 0.057
same,protein stability index,san1∆,1.67 ± 0.081
same,protein stability index,ubr1∆,2.48 ± 0.054
IDIPLDEQAFYNKDKAE [RPC37],protein stability index,doa10∆,3.27 ± 0.18
same,protein stability index,pdr5∆,3.38 ± 0.18
same,protein stability index,san1∆,2.85 ± 0.24
same,protein stability index,ubr1∆,3.26 ± 0.14
NEKLECISLGSTKLSRP [ITC1],protein stability index,doa10∆,2.25 ± 0.064
same,protein stability index,pdr5∆,2.64 ± 0.052
same,protein stability index,san1∆,2.44 ± 0.047
same,protein stability index,ubr1∆,2.47 ± 0.057
VSKKVDVRRLKKNVWRS [BRN1],protein stability index,doa10∆,2.54 ± 0.22
same,protein stability index,pdr5∆,1.33 ± 0.13
same,protein stability index,ubr1∆,3.13 ± 0.13
RMHLAPASKQGYLITPP [SSN2],protein stability index,doa10∆,1.36 ± 0.25
same,protein stability index,pdr5∆,1.45 ± 0.24
same,protein stability index,ubr1∆,1.36 ± 0.13
ADEDDEDAKYVINLKQI [RPT1],protein stability index,doa10∆,1.99 ± 0.13
same,protein stability index,pdr5∆,2.66 ± 0.16
same,protein stability index,san1∆,1.8 ± 0.2
same,protein stability index,ubr1∆,2.61 ± 0.085
HKMSMMAHRVKVIPYST [RPO21],protein stability index,doa10∆,2.47 ± 0.065
same,protein stability index,pdr5∆,2.64 ± 0.062
same,protein stability index,san1∆,2.82 ± 0.079
same,protein stability index,ubr1∆,2.44 ± 0.084
GSDKQMFTQIYLERIEL [YML103C/NUP188],protein stability index,doa10∆,2.5 ± 0.095
same,protein stability index,pdr5∆,2.36 ± 0.086
same,protein stability index,san1∆,1.62 ± 0.23
same,protein stability index,ubr1∆,1.53 ± 0.048
